This assay has as its target T1, Biotinylated junctional peptide Pep21 (PfCSP peptide 21) (Plasmodium falciparum 3D7, UniProt Q7K740, also: biotinylated, position not given here).
T1 construct: Plasmodium falciparum circumsporozoite protein (PfCSP), junctional region, residues 101-115; source: synthetic peptide, bought: Genscript
T1 chain: NPDPNANPNVDPNAN
The experiment in a line: BLI; Octet Red384, biotinylated Pep21 on streptavidin biosensors, Fab serially diluted from 1000 to 62.5 nM, 30°C, PBS + 1% BSA, association 60 s, dissociation 180 s, global fit 1:1 Langmuir. As to conditions: both partners purified. Background: Biolayer interferometry detects binding as a change in optical thickness at a sensor tip.

Drawing on paper PMC12269619, “In silico improvement of affinity for highly protective anti-malarial antibodies” (iScience, 2025), this text covers Kd for one molecule.

Ends that are not written are not given here.

B1: P3-43 Fab (m43.151 P100K_H) (Fab, V domains shown)
VH: QVHLVQSGAEVKKPGASVKVSCKASGYTFTSYAIHWVRQAPGQRLEWMGWIKGGNGNTRYSQKFQDRVTITRDTSASTAYMELSSLRSEDTAVYYCALLTVITKDDAFDIWGQGTMVTVSS
VL: not shown
notes: as the heavy chain of m5 (PDB 7LKG) with the stated change; own structure deposited here; as the light chain of m5; source: Fab produced from the antibody
For the molecule B1, the Kd was determined as 8.9 nM.

As a reminder, the Kd is the concentration at which binding is half-saturated.
